Patent US20110189284A1, “Peptide Fibres” (UNIVERSITY OF BRISTOL, priority 2009, published 2011)

Assays:
PC12 cells = test: Alamar Blue cell-proliferation assay; format: cell-based, rat; conditions: cells on collagen; peptide 0.5-2.5 mM total; 72 hours
Description: PC12 cells were exposed to different concentrations of hSAFAAA-W peptides (from 0.5 mM to 2.5 mM). Results are expressed as percentage of fluorescence from cells incubated with hSAFAAA-W versus no-peptide controls (100%). Mean+/−s.d. mean for n=3 experiments. […] Staurosporine was used to establish definite cell death.
Rat adrenal pheochromocytoma (PC12) cells and the subclone Neuroscreen-1 (NS-1) cells (ThermoFisher Scientific Cellomics) were used. Cells were maintained at 37° C., 5% CO2 in cell-culture medium comprising: Dulbecco's Modified Eagle Media (DMEM, Invitrogen) supplemented with 10% (v/v) horse serum (Sigma), 5% (v/v), fetal bovine serum (Sigma), 1% (v/v) penicillin/streptomycin solution (Sigma), and 2 mM L-glutamine (Invitrogen). […] The fluorescence (excitation, 560 nm; emission, 590 nm) of 100 μl samples was measured. The ratio of the fluorescence intensities to that for a no-peptide control wells was taken as a measure of cell proliferation. […] Cell morphology was followed up using Leica Microsystem Wetzlar GmbH (090-135.001) and images recorded using Canon PowerShot S70 7.1 megapixels. […]

[1] = Particle-tracking microrheology (PTM) of gel strength versus temperature; format: physicochemical; conditions: as a function of temperature
Description: Gel strength was probed using particle-tracking microrheology (PTM), in order to detect any difference between the behaviour of the material at the bulk and micro scales. PTM is a non-invasive technique for measuring local viscoelasticity in complex fluids (Cicuta & Donald, 2007). PTM directly observes the motion of embedded probe particles via optical microscopy. The mean square displacement (MSD) of the particles is calculated and related to the viscoelastic modulus of the sample using a Generalised Stokes-Einstein Relation (Mason, 2000; Hasnain & Donald, 2006). […] The spatial information for individual probe particles can be used to quantify the degree of heterogeneity in the system (Houghton et al., 2008).
Experiments were carried out using a Zeiss LSM 510 confocal microscope operated in bright-field mode with a 50× objective. […] Videos were captured in uncompressed avi format at 640×480 resolution and analysed using custom-written Matlab scripts. Viscoelastic moduli were calculated by taking Laplace Transform of the MSD and using GSER. […]
To confirm and quantify the gel strengths, the storage (G′) and loss (G″) moduli were recorded as a function of temperature using both microrheology (FIG. 3) and bulk oscillatory rheology, FIG. 4a. […]

hSAFAAQ p2 = biological target: T1, hSAFAAQ p2; test: summary of microscopy of the mixed peptides
T1 construct: Second peptide of the control pair hSAFAAQ
T1 peptide: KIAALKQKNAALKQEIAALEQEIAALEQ

hSAFQQQ p2 = biological target: T2, hSAFQQQ p2; test: complementary peptides mixed on ice at 1 mM each; vial inversion gel test
T2 construct: Second peptide of the hSAFQQQ pair; also called peptide f)
T2 peptide: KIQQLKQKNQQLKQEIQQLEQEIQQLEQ
Description: (§1) Complementary hSAF peptides were mixed on ice, and either allowed to assemble at this temperature for 30 minutes, or removed after 5 minutes and incubated for 25 minutes at 20° C. After these times, to test for gel formation, sample vials were inverted and incubated for a further 30 minutes without changing the temperature (FIG. 2). Through this simple test, hSAFAAA and hSAFQQQ both formed self-supporting gels. hSAFQQQ formed a gel at low temperature, which melted on warming; whereas, the hSAFAAA appeared to form a weak gel at low temperature that strengthened on warming.

hSAFAAA p2 = biological target: T3, hSAFAAA p2; test: as above
T3 construct: Second peptide of the hSAFAAA pair; also called peptide b)
T3 peptide: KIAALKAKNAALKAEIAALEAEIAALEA
Description: as §1

With `CN[C@@H]1C[C@H]2O[C@@](C)([C@@H]1OC)n1c3ccccc3c3c4c(c5c6ccccc6n2c5c31)C(=O)NC4` [staurosporine] the “cell proliferation / death versus no-peptide controls” value (PC12 cells) was “died”.

In the case of “KIAALKAKNAALKAEIAALEAEIAALEA [hSAFAAA p2]”, the “gel state by PTM” value [1] is reported as “formed a weak gel detectable by PTM”.

B1: hSAFAAQ p1 (peptide)
peptide: KIAALKQKIAALKQEIAALEQENAALEQ
B1: binds (hSAFAAQ p2).

B2: hSAFQQQ p1 (peptide)
peptide: KIQQLKQKIQQLKQEIQQLEQENQQLEQ
notes: First peptide of the hSAFQQQ pair; also called peptide e)
B2: binds (hSAFQQQ p2).

B3: hSAFAAA p1 (peptide)
peptide: KIAALKAKIAALKAEIAALEAENAALEA
notes: First peptide of the hSAFAAA pair; many copies assemble with p2 into a staggered heterodimer coiled-coil fibril; also called peptide a)
B3: binds (hSAFAAA p2).
